Laboratory results reported in US20020123091.

T1: PRO256 polypeptide
T1 chain: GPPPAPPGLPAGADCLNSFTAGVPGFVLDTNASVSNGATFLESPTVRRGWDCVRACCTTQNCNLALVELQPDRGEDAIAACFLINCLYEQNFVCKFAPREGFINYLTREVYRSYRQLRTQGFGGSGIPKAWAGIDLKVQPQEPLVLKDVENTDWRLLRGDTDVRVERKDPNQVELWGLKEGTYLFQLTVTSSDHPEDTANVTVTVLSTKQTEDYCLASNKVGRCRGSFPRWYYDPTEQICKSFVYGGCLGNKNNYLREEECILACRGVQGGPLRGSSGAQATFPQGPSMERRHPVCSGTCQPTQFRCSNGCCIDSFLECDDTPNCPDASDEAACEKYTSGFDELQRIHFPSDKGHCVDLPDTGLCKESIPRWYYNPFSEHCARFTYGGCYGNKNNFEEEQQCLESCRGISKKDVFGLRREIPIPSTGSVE

B1: hepatocyte growth factor activator (as present in human serum) (protein)
chain: VQLSPDLLATLPEPASPGRQACGRRHKKRTFLRPRIIGGSSSLPGSHPWLAAIYIGDSFCAGSLVHTCWVVSAAHCFSHSPPRDSVSVVLGQHFFNRTTDVTQTFGIEKYIPYTLYSVFNPSDHDLVLIRLKKKGDRCATRSQFVQPICLPEPGSTFPAGHKCQIAGWGHLDENVSGYSSSLREALVPLVADHKCSSPEVYGADISPNMLCAGYFDCKSDACQGDSGGPLACEKNGVAYLYGIISWGDGCGRLHKPGVYTRVANYVDWINDRIRPPRRLVAPS
B2: human factor XIIa (Haematologic Technologies) (protein)
chain: IPPWEAPKEHKYKAEEHTVVLTVTGEPCHFPFQYHRQLYHKCTHKGRPGPQPWCATTPNFDQDQRWGYCLEPKKVKDHCSKHSPCQKGGTCVNMPSGPHCLCPQHLTGNHCQKEKCFEPQLLRFFHKNEIWYRTEQAAVARCQCKGPDAHCQRLASQACRTNPCLHGGRCLEVEGHRLCHCPVGYTGAFCDVDTKASCYDGRGLSYRGLARTTLSGAPCQPWASEATYRNVTAEQARNWGLGGHAFCRNPDNDIRPWCFVLNRDRLSWEYCDLAQCQTPTQAAPPTPVSPRLHVPLMPAQPAPPKPQPTTRTPPQSQTPGALPAKREQPPSLTRNGPLSCGQRLRKSLSSMTRVVGGLVALRGAHPYIAALYWGHSFCAGSLIAPCWVLTAAHCLQDRPAPEDLTVVLGQERRNHSCEPCQTLAVRSYRLHEAFSPVSYQHDLALLRLQEDADGSCALLSPYVQPVCLPSGAARPSETTLCQVAGWGHQFEGAEEYASFLQEAQVPFLSLERCSAPDVHGSSILPGMLCAGFLEGGTDACQGDSGGPLVCEDQAAERRLTLQGIISWGSGCGDRNKPGVYTDVAYYLAWIREHTVS

Key:
PRO256 polypeptide = molecular target: T1, PRO256 polypeptide
[1] = molecular target: single-chain hepatocyte growth factor (scHGF)
single-chain hepatocyte growth factor (scHGF), sequence (P14210 whole entry): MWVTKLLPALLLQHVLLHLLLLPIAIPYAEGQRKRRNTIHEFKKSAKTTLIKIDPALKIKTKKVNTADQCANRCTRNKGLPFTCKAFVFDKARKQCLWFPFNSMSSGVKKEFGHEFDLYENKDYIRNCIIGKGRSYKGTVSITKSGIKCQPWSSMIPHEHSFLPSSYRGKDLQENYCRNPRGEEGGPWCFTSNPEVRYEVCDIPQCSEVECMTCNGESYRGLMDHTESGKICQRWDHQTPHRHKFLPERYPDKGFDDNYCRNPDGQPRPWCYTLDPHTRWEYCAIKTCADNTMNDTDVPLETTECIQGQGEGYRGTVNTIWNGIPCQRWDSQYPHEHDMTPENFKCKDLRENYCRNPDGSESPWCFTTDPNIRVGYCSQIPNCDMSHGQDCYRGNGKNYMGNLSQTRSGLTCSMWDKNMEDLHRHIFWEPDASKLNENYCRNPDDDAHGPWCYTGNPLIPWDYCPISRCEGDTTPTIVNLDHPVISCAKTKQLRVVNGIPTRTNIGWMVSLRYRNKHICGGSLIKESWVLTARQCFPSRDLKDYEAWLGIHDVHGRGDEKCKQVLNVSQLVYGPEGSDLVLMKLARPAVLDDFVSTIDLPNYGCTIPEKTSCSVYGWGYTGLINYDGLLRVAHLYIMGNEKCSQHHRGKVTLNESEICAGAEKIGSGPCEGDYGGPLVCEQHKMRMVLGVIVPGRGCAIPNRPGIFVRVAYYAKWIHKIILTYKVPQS

Protein	human serum (10%)-mediated conversion of ^125I-scHGF into its two chain form, SDS-PAGE/autoradiography, PRO256 at 1 µM (PRO256 polypeptide)	factor XIIa (40 nM) conversion of ^125I-scHGF into its two chain form, SDS-PAGE/autoradiography, with or without PRO256 (PRO256 polypeptide)	conversion of ^125I-scHGF into its two chain form, factor XIIa 40 nM, SDS-PAGE/autoradiography [1]	conversion of scHGF into its two chain form, factor XIIa 20 nM, SDS-PAGE with autoradiography or Coomassie staining [1]
B1	In the presence of the inhibitor PRO256 (at time intervals 0, 0.5 hr, 1 hr, 2 hr, and 4 hr), ^125I-sc-HGF is not converted two chain form as indicated by the top heavy band on the gel.	–	–	–
B2	–	In the presence or absence of PRO256, factor XIIa converts ^125I-scHGF into its two chain form, thereby indicating lack of inhibition by PRO256.	factor XIIa converts ^125I-scHGF into its two chain form	Both labelled and unlabelled HGF were converted identically, suggesting that the iodination of scHGF did not impair processing by its activators, such as factor XIIa.
